Results on two molecules are retold here after US20220387487A1, “COMPOSITIONS AND METHODS FOR TREATMENT OF CANCER” (Aleta Biotherapeutics Inc., priority 2019, published 2022).

Assay [1] has as its target T1, full-length CLEC12A, version with Q at amino acid 254, on transfected HEK-293T cells (Homo sapiens (Human), UniProt Q5QGZ9 1-265).
T1 construct: Generated by mutagenesis of the K version; also called Q form
T1 sequence: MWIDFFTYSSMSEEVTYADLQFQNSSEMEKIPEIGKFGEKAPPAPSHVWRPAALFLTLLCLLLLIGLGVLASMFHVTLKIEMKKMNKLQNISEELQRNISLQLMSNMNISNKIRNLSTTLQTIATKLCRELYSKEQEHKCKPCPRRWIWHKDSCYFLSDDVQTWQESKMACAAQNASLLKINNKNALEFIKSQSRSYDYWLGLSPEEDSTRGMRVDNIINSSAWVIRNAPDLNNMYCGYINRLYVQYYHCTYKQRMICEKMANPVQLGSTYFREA
The assay is described as follows: flow cytometry on HEK-293T cells transfected with CLEC12A 'Q' version, purified fusion protein, detection with HIB19-PE, % Binding. (In general: Flow cytometry measures light scatter and fluorescence of single cells or particles in a stream.)

For assay [2], the target named is T2, CLL-1 (CLEC12A) on CLL-1 positive cell lines (U937, OCI-AML-5) (human, UniProt Q5QGZ9 1-265).
T2 construct: whole, on cells; also called MICL
T2 sequence: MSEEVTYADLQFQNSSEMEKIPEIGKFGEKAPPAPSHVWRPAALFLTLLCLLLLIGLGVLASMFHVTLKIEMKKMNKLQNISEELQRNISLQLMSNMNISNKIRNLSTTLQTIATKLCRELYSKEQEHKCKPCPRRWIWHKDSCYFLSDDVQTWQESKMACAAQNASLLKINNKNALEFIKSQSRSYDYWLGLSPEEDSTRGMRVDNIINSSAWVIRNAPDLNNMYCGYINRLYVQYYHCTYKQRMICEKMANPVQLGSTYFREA
Nature of the assay: flow cytometry on U937 cells, purified fusion protein, a-His-PE detection, % Binding.

The target in assay [3] is T2, CLL-1 (CLEC12A) on CLL-1 positive cell …. The assay is described as follows: cell-based or functional assay.
Another assay addresses biotinylated CD33 (UniProt P20138 18-259, biotinylated (site not stated)). The assay is described as follows: ELISA: fusion protein captured on FMC63, biotinylated CD33 at 0.5 µg/ml, HRP-SA. In general terms: In an ELISA, binding on a coated surface is turned into a signal by an enzyme label.
Assay [4] concerns the target T3, full-length CLEC12A, amino acid 254 K version, on transfected HEK-293T cells (Homo sapiens (Human), UniProt Q5QGZ9 1-265).
T3 construct: GenScript cDNA, UniProt Q5QGZ9-1 as printed; also called K form; K version of CLEC12A
T3 sequence: T1 sequence with Q254K
The assay is described as follows: flow cytometry on transfected HEK-293T cells, HIB19-PE detection.

Assay [5] addresses CLEC12A as named in the ELISA column of Table 8 (UniProt Q5QGZ9). Nature of the assay: ELISA (protocol as printed: FMC63 coat, fusion protein titrated, HRP anti-His).
In assay [6] the target is T2, CLL-1 (CLEC12A) on CLL-1 positive cell …. Nature of the assay: flow cytometry on U937 cells (cell line per paragraph 272), purified fusion protein, detection with FMC63-PE, % Binding.
Assay [7] shares this target. The assay is described as follows: flow cytometry on CLL-1 positive U937 cells, expressed fusion protein, detection with FMC63-PE, % Binding.
Assay [8] shares this target. The assay is described as follows: flow cytometry on CLL-1 positive U937 cells, FMC63-PE detection.
Another assay concerns the target T4, CLEC12A (Homo sapiens, UniProt Q5QGZ9).
T4 construct: literature AbClonal (protein); Genscript (cDNA)
T4 sequence (Q5QGZ9 1-275 isoform Q5QGZ9-1): T1 sequence with Q254K
As to conditions: CLEC12A from AbClonal or cDNA from Genscript; previous studies; cited from earlier work.

Where a chain is given by its changes, count along the chain named. Several values for one entry are separate records, joined by “and”; a condition that tells them apart may be missing. Equal values may be shown once.

B1: anti-CLL-1 VHH(2H3)-CD19 variant (construct #330) (other)
chain: QVQLQESGGGLVQAGGSLRLSCVASGSIRSINVMGWYRQAPGKQRELVAACASDGNTYYADSVKGRFTISRDNAEKTVYLQMNNLKPDDTAVYYCDANSRGNYYSGQGTQVTVSSTSGPGGQGAGGGGSGGGGSGGGGSGGGGSPEEPLVVKVEEGDTAALWCLKGTSDGPTQQLTWSRESPLKPFLKYSLGVPGLGVHVRPDAISVVIRNVSQQMGGFYLCQPGPPSEKAWQPGWTVNVEGSGELFRWNVSDLGGLGCGLKNRSSEGPSSPSGKLMSPKLYVWAKDRPEIWEGEPPCLPPRDSLNQSLSRDLTVAPGSTLWLSCGVPPDSVSRGPLSWTHVHPKGPKSLLSLELKDDRPARDMWVMGTSLMLPRATAQDAGKWYCHRGNLTMSFHLEITARPSRHHHHHH
notes: Fusion of anti-CLL-1 VHH 2H3, linker, CD19 variant extracellular domain and His tag; also called fusion protein #330; single VHH #330 fusion protein
As to B1, the concentration for a half-maximal effect (EC50) is 0.0048 nM and 0.00021 µg/mL in assay [1]; 0.00114 µg/mL and 0.0261 nM in assay [2]; 13 pM in [5]; 0.00406 µg/mL and 0.0865 nM in [6]; 0.0449 µg/mL in assay [7]; 1000 pM in assay [8]. Besides, in assay [3], the “CLEC12A-cell cytotoxicity (IC50 n = 2-3)” value was 7.8 pM. Also, the binding result in the assay with biotinylated CD33 was “no binding”. The “fold weaker binding than to the Q form” value in assay [4] was greater than 10000 fold.

B2: VHH clone 2H3: anti-CLL-1/CLEC12A VHH (protein)
VHH: QVQLQESGGGLVQAGGSLRLSCVASGSIRSINVMGWYRQAPGKQRELVAACASDGNTYYADSVKGRFTISRDNAEKTVYLQMNNLKPDDTAVYYCDANSRGNYYSGQGTQVTVSS
With B2, the “binding to CLEC12A containing a Lysine residue at amino acid 254” value with CLEC12A is reported as “did not bind”.

Broadly, the EC50 is the concentration at which the effect is half-maximal. Read a low EC50 as a more potent agent.
